# Tested on: O=C(O)[C@H]1O[C@@H](Oc2ccc([N+](=O)[O-])cc2)[C@H](O)[C@@H](O)[C@@H]1O
# Assay: purified protein, by the assay type
# Settings: other: pNPG as substrate, optimal pH 5.0, 37 °C
substance,measurement,value
Bacteroides fragilis GUS (BfGUS) (Bacteroides fragilis NCTC 9343),Km,580 ± 90 µM
same,kcat,22 s⁻¹
same,kcat/Km,39000 M⁻¹ s⁻¹
